Reference: the supplement of paper PMC11780869

System: Bacillus subtilis
Experiment: cleaved RNA product abundance (RNA/gDNA barcode ratio) relative to median wild-type variant (ratio to wild type); higher = more accumulation of the downstream cleavage product
Summary of the method: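 Oligos with a 9% error rate were used to build barcoded, mutagenized RNase Y cleavage-site windows within truncated aprE or tetM reporter mRNAs, which were integrated into the B. subtilis chromosome. Cultures were grown in LB at 37°C between OD600 0.0003 and 0.3. Cleaved RNA was gel-selected, reverse transcribed and barcode-sequenced, as were genomic DNA barcodes, and UMIs were collapsed. Cleaved product abundance is the scaled RNA:gDNA barcode ratio, with the median construct carrying the unmutated site as reference.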

[1] = experiment (reporter, strain, medium): exp 8a: truncated aprE reporter, strain BJT201 with 2% xylose (RNase J1 expressed), cleavage site: glnRA (positions -5 to +31 mutated)
[2] = experiment (reporter, strain, medium): exp 4a: truncated aprE reporter, strain BJT201 with 2% xylose (RNase J1 expressed), cleavage site: cggR-gapA (positions -7 to +36 mutated)
[3] = experiment (reporter, strain, medium): exp 2b: truncated aprE reporter, strain BJT200, cleavage site: cggR-gapA (positions -7 to +36 mutated)

Row | Sequence | cleaved RNA product abundance [1] | cleaved RNA product abundance [2] | other results
1 | CGACATGTCCCGCTTCTTTCATTAATCAGTTAGCTACTGTTTTGCTATATACATTTACCTTTTAAGAGGAGGAAT | 0.423 | – | –
2 | ACAGACGAAGGAGCCGCAAAGAAGATATTAAGGGATGAATAATCCCTCAATATAAAGATCTCTCACTTATTTAAA | – | 0.559 | –
3 | ACAGACGAAGGAGCCGCAAAGAAGTTATTAACGGATGTATAATCCCTCAATATAAATATCTCTCACTTATTTAAA | – | 0.147 | cleaved RNA product abundance [3]: 0.124
4 | ACAGACGAAGGAGCCGCAAAGAAGTTATTAAGGGATATATAATCCCTCAATATAAATATCTCTCACTTATTTAAA | – | 0.738 | –
5 | CGACATGTCCCGCTTCTTTCATTAATCCGTTAGCAACTGTATTGCTATTTACATTTACCTTTTAAGAGGAGGAAT | 0.202 | – | –
6 | CGACATGTCCCGCTTCTTTCATTAATCCGTTAGCAACTGTTTTGCTATATACATTACCCTTTTAAGAGGAGGAAT | 0.597 | – | –
7 | ACAGACGAAGGAGCCGCAGAGAAGTTATTAAGGTATGAATAATCCCTCAATATAAATATCTCTCACTTATTTAAA | – | 0.137 | –
8 | ACAGACGAAGGAGCCGCAAAGAAGTTATTAAGGGATGTATAATCTCTCAATATAAATATCTCTCACTTATTTAAA | – | 0.513 | cleaved RNA product abundance [3]: 0.708
9 | ACAGACGAAGGAGCCGCAAAGAAGTTATCAGGGGATGAATAATCCCTCAATATAAATATCTCTCACTTATTTAAA | – | – | cleaved RNA product abundance [3]: 0.323
10 | CGACATGTCCCGCTTCTTTCATTAATTCGTTAGCAATTGTTTTGCTATATACATTTACCTTTTAAGAGGAGGAAT | 1.67 | – | –
11 | ACAGACGAAGGAGCCGCAAAGAAGTTATTAAGGGACGAATAATCCCTCAATCTAAATATCTCTCACTTATTTAAA | – | 0.0944 | –
12 | ACAGACGAAGGAGCCGCAAATAAGTTATTAAGGGATGCATAATCCCTCAATATAAATATCTCTCACTTATTTAAA | – | 1.1 | –
13 | ACAGACGAAGGAGCCGCAAAGAAGTTATTAAGGGATAAATAATCCCTCAGTATAAATATCTCTCACTTATTTAAA | – | 0.242 | –
14 | CGACATGTCCCGCTTCTTTCATTAATCCTTTAGCAACTGTTTTCCTATATACATTTACCTTTTAAGAGGAGGAAT | 0.283 | – | –
15 | ACAGACGAAGGAGCCGCAAAGAAGTTATTAAAGGATGAATAATCCCTTAATATAAATATCTCTCACTTATTTAAA | – | 1.06 | cleaved RNA product abundance [3]: 1.16
16 | ACAGACGAAGGAGCCGCATAAAAGTTATTAAGGCATGAATAATCCCTCAATATAAATATCTCTCACTTATTTAAA | – | 0.0533 | –
17 | CGACATGTCCCGCTTCTTTCATTAATCCGTAAGCAACTGTTTTCCTATATACATTTACCTTTTAAGAGGAGGAAT | 0.354 | – | –
18 | ACAGACGAAGGAGCCGCAAAGAAGTCATTAAGGGATGAATAATCCGTCAATATAAATATCTCTCACTTATTTAAA | – | 0.173 | cleaved RNA product abundance [3]: 0.124
19 | ACAGACGAAGGAGCCGCATAGAAGTTATTAAGGGATCAATAATCCCTCAATATAAATATCTCTCACTTATTTAAA | – | 1.04 | –
20 | ACAGACGAAGGAGCCGCAAAGAAGTTATTAAGGGAAGAATTATCCCTCAATATAAATATCTCTCACTTATTTAAA | – | 0.771 | –
21 | ACAGACGAAGGAGCCGCAATGAAGTTATTAAGGGATGAATAATCCATCAATATAAATATCTCTCACTTATTTAAA | – | 0.251 | –
22 | CGACATGTCCCGCTTCTTTCATTAATCCGTTATCACCTGTTTTGCTATATACATTTACCTTTTAAGAGGAGGAAT | 0.198 | – | –

Row | Sequence | cleaved RNA product abundance [1] | cleaved RNA product abundance [2] | other results
23 | ACAGACGAAGGAGCCGCAAAGAAGTTATTAAGCGATGAATAATGCCTCAATATAAATATCTCTCACTTATTTAAA | – | 0.112 | –
24 | ACAGACGAAGGAGCCGCAAATATGTTATTAAGGGATGAATAATCCCTCAATATAAATATCTCTCACTTATTTAAA | – | 1.1 | –
25 | ACAGACGAAGGAGCCGCAACGAAGTTATTAAGGGATGAATTATCCCTCAATATAAATATCTCTCACTTATTTAAA | – | 0.91 | –
26 | ACAGACGAAGGAGCCGCAAAGAAGTTATTAAGGGATGACTAAACCCTCAATATAAATATCTCTCACTTATTTAAA | – | 0.303 | cleaved RNA product abundance [3]: 0.197
27 | ACAGACGAAGGAGCCGCTATGAAGTTATTAAGGGATGAATAATCCCTCAATATAAATATCTCTCACTTATTTAAA | – | 0.952 | –
28 | CGACATGTCCCGCTTCTTTCATTAATCCGTTAGCAACTCTTTTGATATATACATTTACCTTTTAAGAGGAGGAAT | 0.51 | – | –
29 | ACAGACGAAGGAGCCGCAAAGAAGTTATTAAGCGATGAATAATCCCTGAATATAAATATCTCTCACTTATTTAAA | – | 0.072 | –
30 | ACAGACGAAGGAGCCGCAAAGAAGTTATTAAGGTATGAATAATCCCTCAATTTAAATATCTCTCACTTATTTAAA | – | 0.0555 | cleaved RNA product abundance [3]: 0.0856
31 | CGACATGTCCCGCTTCTTTCATTAATCTGTTAGCAACTGTTTTGCTATATACATTTACTTTTTAAGAGGAGGAAT | 1.68 | – | –
32 | CGACATGTCCCGCTTCTTTCATTAATCCGTTAGCAACTGTTATGCTATATACCTTTACCTTTTAAGAGGAGGAAT | 0.184 | – | –
33 | ACAGACGAAGGAGCCGCAAGAAGTTATTAAGGGATGAATAATCCCTCAATATAAATATCTCTCACTTATTTAAAG | – | 0.931 | cleaved RNA product abundance [3]: 1.27
34 | ACAGACGAAGGAGCCCCAAAGAAGTTATTAAGGGATGAATAATCCCTCAATATAAATATCTCTCACTTATTTAAA | – | – | cleaved RNA product abundance (experiment (reporter, strain, medium): exp 6: tetM reporter, strain 168, cleavage site: cggR-gapA (positions -7 to +36 mutated)): 1.36
35 | CGACATGTCCCGCTTCTTTCATTAATCCGTTAGCAAATGTTTTGCTATATACATTCACCTTTTAAGAGGAGGAAT | 1.09 | – | –
36 | ACAGACGAAGGAGCCGCAAAGAAGTTATTAAGGGATAAATAATCGCTCAATATAAATATCTCTCACTTATTTAAA | – | 0.0974 | –
37 | CGACATGTCCCGCTTCTTTCATTAATCCGTCAGCAACTGTTTTGCTATATTCATTTACCTTTTAAGAGGAGGAAT | 0.112 | – | –
38 | CGACATGTCCCGCTTCTTTCATTAATCCGTTAGCTACTGTTTTGCAATATACATTTACCTTTTAAGAGGAGGAAT | 0.187 | – | –
39 | ACAGACGAAGGAGCCGCAAAGAAGTTATTAAGGGATGAATAATCCCTCATAATAAATATCTCTCACTTATTTAAA | – | 0.554 | –
40 | ACAGACGAAGGAGCCGCAAAGAAGTTATAAAGGGATGAATATTCCCTCAATATAAATATCTCTCACTTATTTAAA | – | 0.281 | –
41 | ACAGACGAAGGAGCCGCAAAGAAATTATTAAGGGATGAATAATCCCTCGATATAAATATCTCTCACTTATTTAAA | – | 0.395 | –
42 | ACAGACGAAGGAGCCGCAAACAAGTTATTAAGGGATGAATAATCCCCCAATATAAATATCTCTCACTTATTTAAA | – | 0.137 | –
43 | ACAGACGAAGGAGCCGCAAAGAAGCTATTAAGGGAAGAATAATCCCTCAATATAAATATCTCTCACTTATTTAAA | – | 0.4 | cleaved RNA product abundance [3]: 0.265
